± gives the standard deviation of the averaged measurements.
B1: library; a variant is named by its letters at N, in order (parent)
chain: GCUGUCACCGAGAAACUGUGAAGUAUAUCUUAAACCUGGGCACUUAAAAGAUAUAUGGAGUUAGUAGUGCAACCUGCUCGGUCUGAUGAGUCCNNNNNNGGACGAAACAGC

What was measured:
[1] = variants of: B1; experiment: normalized RNA/DNA level without ligand (relative to sTRSVctl = 100) (log10 (% of sTRSVctl)); HEK293T; ligand: cyclic di-GMP (c-di-GMP-II aptamer); higher = less ribozyme self-cleavage, higher mRNA level; settings: reporter: mCherry (pCS4076), ligand present: no
In short: (§1)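 Total RNA, extracted with EDTA 72 h after HEK293T cells were transfected with 4 µg per 6-well well of reporter-linked ribozyme switch library plasmids, was reverse-transcribed, amplified, barcoded and sequenced. Ligand, if used, was added 1 h before transfection. RNA level was derived from RNA reads divided by DNA reads and normalized to a spiked-in non-cleaving sequence or to the top sequences. This was multiplied by 100 and log10-transformed, with the top set of 25 sequences and a ≥100 DNA read minimum.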

[2] = variants of: B1; experiment: normalized RNA/DNA level with ligand (relative to sTRSVctl = 100) (log10 (% of sTRSVctl)); HEK293T; ligand: cyclic di-GMP (c-di-GMP-II aptamer); ligand concentration (+) RNA-Seq: 1 mM; higher = less ribozyme self-cleavage, higher mRNA level; settings: reporter: mCherry (pCS4076), ligand present: yes
In short: as §1

| Variant | normalized RNA/DNA level without ligand (log10) [1] | normalized RNA/DNA level with ligand (log10) [2] |
| --- | --- | --- |
| AUUCAU | 1.74 ± 0.045 | 1.84 ± 0.11 |
| AUUCAC | 1.76 ± 0.021 | 1.88 ± 0.09 |
| ACCUUA | 1.67 ± 0.015 | 1.79 ± 0.14 |
| AUACAG | 1.59 ± 0.089 | 1.77 ± 0.04 |
| CCGGGA | 1.51 ± 0.068 | 1.69 ± 0.089 |
| AUACCA | 1.663 ± 0.0032 | 1.79 ± 0.11 |
| UUCCUC | 1.779 ± 0.013 | 1.91 ± 0.1 |
| GGUCAU | 1.56 ± 0.055 | 1.83 ± 0.081 |
| UCUGUG | 1.73 ± 0.051 | 1.91 ± 0.092 |
| UACUGA | 1.66 ± 0.044 | 1.82 ± 0.11 |
| UGUCAU | 1.68 ± 0.049 | 1.81 ± 0.1 |
| CUCGGG | 1.76 ± 0.031 | 1.88 ± 0.085 |
| GACCUU | 1.69 ± 0.0029 | 1.86 ± 0.13 |
| GACGUG | 1.71 ± 0.052 | 1.83 ± 0.11 |
| AUGGGC | 1.626 ± 0.015 | 1.79 ± 0.16 |
| UGGGGA | 1.58 ± 0.085 | 1.73 ± 0.073 |
| UGGGGC | 1.767 ± 0.012 | 1.91 ± 0.1 |
| UUUCCC | 1.83 ± 0.07 | 1.94 ± 0.13 |
| GCAGGG | 1.6 ± 0.05 | 1.74 ± 0.082 |
| GCCCAC | 1.656 ± 0.0072 | 1.82 ± 0.14 |
| CAUGUA | 1.44 ± 0.081 | 1.65 ± 0.072 |
| UGCUCA | 1.762 ± 0.015 | 1.85 ± 0.09 |
| GUUUAA | 1.54 ± 0.058 | 1.74 ± 0.086 |
| GCGAAA | 1.34 ± 0.099 | 1.56 ± 0.096 |

| Variant | normalized RNA/DNA level without ligand (log10) [1] | normalized RNA/DNA level with ligand (log10) [2] |
| --- | --- | --- |
| CGACGU | 1.66 ± 0.034 | 1.84 ± 0.048 |
| CUCACG | 1.78 ± 0.037 | 1.86 ± 0.16 |
| UUUGGU | 1.73 ± 0.043 | 1.88 ± 0.066 |
| CGGCCG | 1.81 ± 0.035 | 1.87 ± 0.11 |
| GAUUAC | 1.722 ± 0.0096 | 1.83 ± 0.081 |
| CUCAAU | 1.55 ± 0.057 | 1.71 ± 0.082 |
| CGAAGU | 1.676 ± 0.0054 | 1.84 ± 0.16 |
| AAUCUG | 1.62 ± 0.031 | 1.8 ± 0.061 |
| AGACCA | 1.75 ± 0.031 | 1.88 ± 0.15 |
| UACGUU | 1.684 ± 0.0031 | 1.84 ± 0.093 |
| CACCGC | 1.759 ± 0.015 | 1.85 ± 0.13 |
| CCCACU | 1.624 ± 0.014 | 1.83 ± 0.12 |
| GUGGGG | 1.65 ± 0.021 | 1.8 ± 0.14 |
| CAAAUG | 1.64 ± 0.017 | 1.82 ± 0.068 |
| UCCGAA | 1.48 ± 0.015 | 1.69 ± 0.17 |
| GAAUCC | 1.75 ± 0.058 | 1.86 ± 0.076 |
| AUUUCG | 1.66 ± 0.028 | 1.82 ± 0.09 |
| UCACAC | 1.7 ± 0.0024 | 1.81 ± 0.13 |
| GGCAUC | 1.65 ± 0.023 | 1.81 ± 0.087 |
| UGAGGA | 1.54 ± 0.091 | 1.75 ± 0.088 |
| GCGGAU | 1.43 ± 0.097 | 1.63 ± 0.11 |
| AGAGUA | 1.66 ± 0.029 | 1.73 ± 0.081 |
| AGGUUG | 1.7 ± 0.022 | 1.77 ± 0.1 |
| UCCCCA | 1.79 ± 0.034 | 1.91 ± 0.2 |

| Variant | normalized RNA/DNA level without ligand (log10) [1] | normalized RNA/DNA level with ligand (log10) [2] |
| --- | --- | --- |
| GGUCUC | 1.73 ± 0.075 | 1.87 ± 0.12 |
| CUAGGG | 1.62 ± 0.022 | 1.78 ± 0.12 |
| AGCUCA | 1.69 ± 0.013 | 1.81 ± 0.12 |
| AACUUC | 1.714 ± 0.0074 | 1.82 ± 0.095 |
| AUCUGA | 1.56 ± 0.099 | 1.71 ± 0.079 |
| CCCCGA | 1.6835 ± 0.00018 | 1.84 ± 0.13 |
| GACACG | 1.7112 ± 0.0013 | 1.82 ± 0.12 |
| UCUACC | 1.798 ± 0.0078 | 1.88 ± 0.12 |
| GGCGCA | 1.86 ± 0.064 | 1.92 ± 0.023 |
| CUUACG | 1.82 ± 0.085 | 1.87 ± 0.19 |
| AACUAU | 1.662 ± 0.014 | 1.79 ± 0.11 |
| CACUGA | 1.65 ± 0.039 | 1.77 ± 0.1 |
| GAACCG | 1.7241 ± 0.00012 | 1.81 ± 0.1 |
| AGCGGC | 1.731 ± 0.0051 | 1.87 ± 0.074 |
| CUACGU | 1.73 ± 0.017 | 1.82 ± 0.081 |
| CAGUCA | 1.41 ± 0.1 | 1.52 ± 0.13 |
| ACCGCG | 1.72 ± 0.075 | 1.87 ± 0.099 |
| GUCACC | 1.708 ± 0.011 | 1.85 ± 0.055 |
| AAGUCA | 1.63 ± 0.06 | 1.77 ± 0.14 |
| AAGUCU | 1.68 ± 0.058 | 1.8 ± 0.12 |
| AUAAGA | 1.4 ± 0.11 | 1.62 ± 0.12 |
| CUUUGU | 1.78 ± 0.029 | 1.87 ± 0.049 |
| CGCUAG | 1.747 ± 0.0046 | 1.87 ± 0.15 |
| CUGGUC | 1.68 ± 0.032 | 1.8 ± 0.14 |

| Variant | normalized RNA/DNA level without ligand (log10) [1] | normalized RNA/DNA level with ligand (log10) [2] |
| --- | --- | --- |
| AUCACG | 1.64 ± 0.012 | 1.78 ± 0.13 |
| CAUUCG | 1.83 ± 0.091 | 1.95 ± 0.14 |
| AGUGAU | 1.671 ± 0.003 | 1.81 ± 0.12 |
| UGGUUU | 1.761 ± 0.011 | 1.88 ± 0.12 |
| CAGGUC | 1.76 ± 0.021 | 1.84 ± 0.094 |
| CUUAGG | 1.79 ± 0.072 | 1.89 ± 0.13 |
| UUAUAC | 1.73 ± 0.018 | 1.86 ± 0.053 |
| CGCGAA | 1.23 ± 0.12 | 1.44 ± 0.11 |
| GAGGAU | 1.66 ± 0.022 | 1.77 ± 0.13 |
| CUUCCC | 1.8 ± 0.024 | 1.88 ± 0.14 |
| AAACCU | 1.72 ± 0.018 | 1.84 ± 0.097 |
| GUCUUC | 1.7 ± 0.015 | 1.87 ± 0.097 |
| GCCCGA | 1.62 ± 0.052 | 1.79 ± 0.079 |
| CUAGCC | 1.77 ± 0.022 | 1.83 ± 0.075 |
| AGAAGC | 1.56 ± 0.13 | 1.74 ± 0.077 |
| CACGGC | 1.747 ± 0.0044 | 1.89 ± 0.11 |
| UGGUAG | 1.66 ± 0.035 | 1.82 ± 0.13 |
| UUCCCA | 1.79 ± 0.07 | 1.92 ± 0.12 |
| GAAGGG | 1.53 ± 0.048 | 1.69 ± 0.079 |
| UGCGAA | 1.69 ± 0.054 | 1.784 ± 0.013 |
| UGCGAC | 1.685 ± 0.016 | 1.82 ± 0.08 |
| CUCUGA | 1.663 ± 0.015 | 1.81 ± 0.09 |
| AAGGGC | 1.61 ± 0.027 | 1.75 ± 0.13 |
| UCGGCG | 1.87 ± 0.015 | 1.96 ± 0.084 |

| Variant | normalized RNA/DNA level without ligand (log10) [1] | normalized RNA/DNA level with ligand (log10) [2] |
| --- | --- | --- |
| GUACGU | 1.63 ± 0.039 | 1.81 ± 0.063 |
| GCCGGA | 1.55 ± 0.041 | 1.7 ± 0.11 |
| CACCAA | 1.4 ± 0.088 | 1.57 ± 0.1 |
| GAACUC | 1.725 ± 0.004 | 1.85 ± 0.1 |
| CUGUUG | 1.56 ± 0.035 | 1.69 ± 0.076 |
| CUACAU | 1.57 ± 0.047 | 1.72 ± 0.13 |
| GUCGCC | 1.77 ± 0.036 | 1.89 ± 0.12 |
| UCAACU | 1.707 ± 0.0018 | 1.86 ± 0.069 |
| UCAACG | 1.77 ± 0.024 | 1.89 ± 0.096 |
| CUCCGC | 1.78 ± 0.019 | 1.91 ± 0.073 |
| GCGCCU | 1.774 ± 0.0061 | 1.88 ± 0.083 |
| UUGUUA | 1.64 ± 0.022 | 1.81 ± 0.12 |
| GACUAC | 1.7044 ± 0.00077 | 1.82 ± 0.15 |
| AAAUUC | 1.6899 ± 0.00096 | 1.85 ± 0.11 |
| CGGUGC | 1.785 ± 0.007 | 1.9 ± 0.12 |
| GGCUGC | 1.7019 ± 0.0016 | 1.83 ± 0.11 |
| GAAUGU | 1.579 ± 0.014 | 1.76 ± 0.07 |
| CAGCGU | 1.701 ± 0.011 | 1.84 ± 0.088 |
| GGCAGA | 1.637 ± 0.013 | 1.76 ± 0.1 |
| UCUGCA | 1.748 ± 0.0085 | 1.85 ± 0.13 |

Source: the supplement of paper PMC6757056
